The record followed here is the RNAGym collection of RNA variant scans (doi:10.1073/pnas.2313332121).

Sequences and labels used below:
B1: TPR 5TU (parent)
chain: GGAUCUUCUCGAUCUAACAAAAAAGACAAAUCUGCCACAAAGCUUGAGAGCAUCUUCGGAUGCAGAGGCGGCAGCCUUCGGUGGCGCGAUAGCGCCAACGUUCUCAACUAUGACACGCAAAACGCGUGCUCCGUUGAAUGGAGUUUAUCAUG

Fewer inactive variants are shown than the library holds.

The data set covers variants of B1. The data set can be described thus: polymerase ribozyme fitness, log enrichment relative to wild type (log ratio); higher = more active; in vitro selection for triplet polymerase activity. In short, it runs like this:
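Both subunits of a heterodimeric triplet polymerase ribozyme were given their own mutant library, built by PCR and transcribed. Each library was annealed with a biotinylated primer, the partner subunit and triplets, incubated frozen at −7 °C, and its extended constructs gel-excised, captured on streptavidin beads and amplified by RT-PCR, all in one round done in triplicate. Fitness is the logarithm of genotype enrichment relative to wild-type enrichment, with replicates averaged by inverse-variance weighting. That logarithm is base 2, and Illumina-sequenced genotypes needed ≥10 input reads and ≥1 read per output.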
For A16U C85U, the “polymerase ribozyme fitness (log ratio)” value was -2.1.
With U15G C85A C123U, the “polymerase ribozyme fitness (log ratio)” value is -0.906.
For the variant A16U A39U A49U G50C G84U A119G A121G G140U, the “polymerase ribozyme fitness (log ratio)” value was not above -4.2.
Consider C14U C75G U101G U135A, for which the “polymerase ribozyme fitness (log ratio)” value was not above -4.2.
In the case of U15A A23U A39C A47U C96G G141U, the “polymerase ribozyme fitness (log ratio)” value was not above -4.2.
The result for A16G C38A C76A C85U U134A reads -4.
As to A16C A30U G68C C79G, the “polymerase ribozyme fitness (log ratio)” value was not above -4.2.
On to A16U A28C U55A C69A G71A G88C U102G C123U U130G, for which the “polymerase ribozyme fitness (log ratio)” value was not above -4.2.
Regarding U15A G42U C87G G94A C99G C125U U148A, the “polymerase ribozyme fitness (log ratio)” value was not above -4.2.
In the case of U15A A73U C76G C118A A138C G141C, the “polymerase ribozyme fitness (log ratio)” value is not above -4.2.
With U15A C87A A107U C108A, the “polymerase ribozyme fitness (log ratio)” value was not above -4.2.
In the case of U15C C38U G86A C87U C99U, the “polymerase ribozyme fitness (log ratio)” value is -3.87.
With C14U C51U A66G C87A C116U U148C, the “polymerase ribozyme fitness (log ratio)” value was not above -4.2.
As to U15G U31A U55A C93G, the “polymerase ribozyme fitness (log ratio)” value was -2.44.
As for C14U G94A C108U A137U, the figure is -4.03; as for A16U G92U C99G, -3.45.
C14U C76G: the “polymerase ribozyme fitness (log ratio)” value was not above -4.2.
As to U15C A22C C118A U144A, the “polymerase ribozyme fitness (log ratio)” value was -0.0778.
As for U15G G92U, the figure is -0.561; as for A17C A28U G88C U144C, -4.01.
The result for U15C G42U G50U C93G C132A G140A U148C A150U reads not above -4.2; that for A16U C54G C87A A98U, not above -4.2; that for A16U C32G A66U C72U C85G, not above -4.2.
In the case of A16C A21U C76U C105U, the “polymerase ribozyme fitness (log ratio)” value was -1.77.
For the variant A16C A47C U55A, the “polymerase ribozyme fitness (log ratio)” value is -2.23.
As for A16C A30U G58U A66U A73G, the figure is not above -4.2; as for A17C C93G, -3.8.
Take C14U U44A: the “polymerase ribozyme fitness (log ratio)” value is not above -4.2.
For the variant C14U G25U U31G C43A A47C G62A A91G G94C U104C A138U G140C U145G, the “polymerase ribozyme fitness (log ratio)” value was not above -4.2.
As for A16U A41C G42A G65A A66G C87A U90G, the figure is not above -4.2.
As for U15C A26G U44G C54U C63U C87G U90C, the “polymerase ribozyme fitness (log ratio)” value is not above -4.2.
Consider A16C A19C G84C C96U G126C, for which the “polymerase ribozyme fitness (log ratio)” value was -3.42.
Consider A16U A19C C85U, for which the “polymerase ribozyme fitness (log ratio)” value is -2.05.
As for A16U A41U, the figure is -2.64; as for A16G A73G, -0.494; as for C14U G46A U55G, -3.69.
Regarding A16G A39G G68A C95A C103G C108U U111G A115G C123U, the “polymerase ribozyme fitness (log ratio)” value was not above -4.2.
With U15G C85A, the “polymerase ribozyme fitness (log ratio)” value is -1.35.
With A17C A73G C76G U82C C85G, the “polymerase ribozyme fitness (log ratio)” value is not above -4.2.
A16U A22U A52C C87A A107C C125A U134C: the “polymerase ribozyme fitness (log ratio)” value is not above -4.2.
For A16C C32A A41U A60G G74U C93G A147U, the “polymerase ribozyme fitness (log ratio)” value is not above -4.2.
For the variant U15A G84U C95U G143C, the “polymerase ribozyme fitness (log ratio)” value is -4.14.
In the case of A16G A17C A41U U55A C76U C85A, the “polymerase ribozyme fitness (log ratio)” value is not above -4.2.
Take A16C C108U A147U: the “polymerase ribozyme fitness (log ratio)” value is -3.42.
Turning to A16U A22U A37G C72U, the “polymerase ribozyme fitness (log ratio)” value is -3.87.
The result for U15G G50U C93A G143A reads -3.35.
As for U15A U55A U56A C69U C79U G86A A91U A106C A121G C125U A142C, the figure is not above -4.2; as for U15G C36U A47C C96G U144C, not above -4.2.
For A17C C27U C85U G86U C123U G141A, the “polymerase ribozyme fitness (log ratio)” value is -3.85.
Regarding U15C G88A, the “polymerase ribozyme fitness (log ratio)” value was -3.6.
Regarding U15C C99G, the “polymerase ribozyme fitness (log ratio)” value was -0.377.
For A16U G25U C27U A28U C43U G94C C99G C125A U148C U151G, the “polymerase ribozyme fitness (log ratio)” value was not above -4.2.
As for U15G A122G, the “polymerase ribozyme fitness (log ratio)” value is -1.2.
For A16U C38G U61A C75G G80A G100A G136U, the “polymerase ribozyme fitness (log ratio)” value was not above -4.2.
Regarding A16U C76G G80C, the “polymerase ribozyme fitness (log ratio)” value was not above -4.2.
Consider A16C C93A, for which the “polymerase ribozyme fitness (log ratio)” value was -3.94.
As to U15C A24C C36U A40U C79G C93G G100A C125G U139C, the “polymerase ribozyme fitness (log ratio)” value is not above -4.2.
As to U15C U56A G94A A142G, the “polymerase ribozyme fitness (log ratio)” value is -0.297.
The result for A17C A19C U55A G94A reads 1.05; that for C14U U55G, -1.61; that for A16G C95U C96A G100U U101A C108A U139C U144A, not above -4.2.
As for A16U A37C A52G G84A G140C, the “polymerase ribozyme fitness (log ratio)” value was not above -4.2.
As for U15A C87U, the figure is -0.632.
As for A17C A64C G83U, the “polymerase ribozyme fitness (log ratio)” value was not above -4.2.
A16U U31G G50A G58A C85U U104G A106U U134A: the “polymerase ribozyme fitness (log ratio)” value was not above -4.2.
Take A16C A121G: the “polymerase ribozyme fitness (log ratio)” value is -1.15.
In the case of A16C C35G A66C G71A U82C C87A, the “polymerase ribozyme fitness (log ratio)” value was not above -4.2.
Turning to A16U C93G C105G, the “polymerase ribozyme fitness (log ratio)” value was not above -4.2.
As for A16U C54A A60C A73C G86A A89C A119G G126U, the “polymerase ribozyme fitness (log ratio)” value was not above -4.2.
For U15A A28U G34A A47U C96U G117A, the “polymerase ribozyme fitness (log ratio)” value was not above -4.2.
As for U15G A24U U145G A147C, the “polymerase ribozyme fitness (log ratio)” value is -3.02.
Turning to C14U U15C A23U A41U C85A G124U, the “polymerase ribozyme fitness (log ratio)” value is not above -4.2.
The result for A16G A17U A26U A41U C96A U102A G143C reads not above -4.2; that for U15G A24G C35U U55A U77G U90G G94A A97U G140U, not above -4.2; that for A16G C85G, -2.6.
Consider A16G C85U, for which the “polymerase ribozyme fitness (log ratio)” value is -0.908.
Turning to U15A A20G A26U A39G A47C C79U C103G G140A, the “polymerase ribozyme fitness (log ratio)” value is not above -4.2.
Regarding U15C G92A C99G U148A, the “polymerase ribozyme fitness (log ratio)” value was not above -4.2.
As for C14U C85A G141C, the figure is -2.63; as for U15G A17U G25A U61G C93G G140U, not above -4.2; as for A16U G48U G86C C87A A97U C123U U148G, not above -4.2.
Turning to A16C C43A A52C G70A C131U, the “polymerase ribozyme fitness (log ratio)” value is not above -4.2.
On to A17C A24U G48C A89G C93G G128U, for which the “polymerase ribozyme fitness (log ratio)” value is not above -4.2.
As for C14U G92C, the “polymerase ribozyme fitness (log ratio)” value was -1.88.
